Key:
Assay in all cases: cell-based or functional assay
[1] = molecular target: delta-plasmin (human (recombinant deletion mutant of human plasminogen, made in E. coli)) (UniProt P00747)
micro-plasmin = micro-plasmin (UniProt P00747)
mini-plasmin (human) = mini-plasmin (human) (UniProt P00747)
plasmin (human) = plasmin (human) (UniProt P00747)

| inhibition rate (22° C., PBS, pH 7.4) [1] | inhibition rate (22° C., PBS, pH 7.4) (micro-plasmin) | inhibition rate (22° C., PBS, pH 7.4) (mini-plasmin (human)) | inhibition rate (22° C., PBS, pH 7.4) (plasmin (human)) | fold change of inhibition rate against micro-plasmin or mini-plasmin [1] | inhibition rate (22° C., PBS, pH 7.4; residual S-2251 activity) [1] | inhibition rate (22° C., PBS, pH 7.4; residual S-2251 activity) (micro-plasmin) | inhibition rate (second separate experiment; residual S-2251 activity) (micro-plasmin) | inhibition rate (22° C., PBS, pH 7.4; residual S-2251 activity) (mini-plasmin (human)) | Binder |
| --- | --- | --- | --- | --- | --- | --- | --- | --- | --- |
| 760000 M^-1s^-1 | 780000 M^-1s^-1 | 750000 M^-1s^-1 | 650000 M^-1s^-1 |  |  |  |  |  | α2-macroglobulin (protein, UniProt P01023 24-1474, looked up) SVSGKPQYMVLVPSLLHTETTEKGCVLLSYLNETVTVSASLESVRGNRSLFTDLEAENDVLHCVAFAVPKSSSNEEVMFLTVQVKGPTQEFKKRTTVMVKNEDSLVFVQTDKSIYKPGQTVKFRVVSMDENFHPLNELIPLVYIQDPKGNRIAQWQSFQLEGGLKQFSFPLSSEPFQGSYKVVVQKKSGGRTEHPFTVEEFVLPKFEVQVTVPKIITILEEEMNVSVCGLYTYGKPVPGHVTVSICRKYSDASDCHGEDSQAFCEKFSGQLNSHGCFYQQVKTKVFQLKRKEYEMKLHTEAQIQEEGTVVELTGRQSSEITRTITKLSFVKVDSHFRQGIPFFGQVRLVDGKGVPIPNKVIFIRGNEANYYSNATTDEHGLVQFSINTTNVMGTSLTVRVNYKDRSPCYGYQWVSEEHEEAHHTAYLVFSPSKSFVHLEPMSHELPCGHTQTVQAHYILNGGTLLGLKKLSFYYLIMAKGGIVRTGTHGLLVKQEDMKGHFSISIPVKSDIAPVARLLIYAVLPTGDVIGDSAKYDVENCLANKVDLSFSPSQSLPASHAHLRVTAAPQSVCALRAVDQSVLLMKPDAELSASSVYNLLPEKDLTGFPGPLNDQDNEDCINRHNVYINGITYTPVSSTNEKDMYSFLEDMGLKAFTNSKIRKPKMCPQLQQYEMHGPEGLRVGFYESDVMGRGHARLVHVEEPHTETVRKYFPETWIWDLVVVNSAGVAEVGVTVPDTITEWKAGAFCLSEDAGLGISSTASLRAFQPFFVELTMPYSVIRGEAFTLKATVLNYLPKCIRVSVQLEASPAFLAVPVEKEQAPHCICANGRQTVSWAVTPKSLGNVNFTVSAEALESQELCGTEVPSVPEHGRKDTVIKPLLVEPEGLEKETTFNSLLCPSGGEVSEELSLKLPPNVVEESARASVSVLGDILGSAMQNTQNLLQMPYGCGEQNMVLFAPNIYVLDYLNETQQLTPEIKSKAIGYLNTGYQRQLNYKHYDGSYSTFGERYGRNQGNTWLTAFVLKTFAQARAYIFIDEAHITQALIWLSQRQKDNGCFRSSGSLLNNAIKGGVEDEVTLSAYITIALLEIPLTVTHPVVRNALFCLESAWKTAQEGDHGSHVYTKALLAYAFALAGNQDKRKEVLKSLNEEAVKKDNSVHWERPQKPKAPVGHFYEPQAPSAEVEMTSYVLLAYLTAQPAPTSEDLTSATNIVKWITKQQNAQGGFSSTQDTVVALHALSKYGAATFTRTGKAAQVTIQSSGTFSSKFQVDNNNRLLLQQVSLPELPGEYSMKVTGEGCVYLQTSLKYNILPEKEEFPFALGVQTLPQTCDEPKAHTSFQISLSVSYTGSRSASNMAIVDVKMVSGFIPLKPTVKMLERSNHVSRTEVSSNHVLIYLDKVSNQTLSLFFTVLQDVPVRDLKPAIVKVYDYYETDEFAIAEYNAPCSKDLGNA |
|  |  |  |  | 40 fold | 1.1e+07 M^-1s^-1 | 180000 M^-1s^-1 | 310000 M⁻¹ s⁻¹ | 240000 M^-1s^-1 | α2-antiplasmin (protein, UniProt P08697 40-491, looked up) NQEQVSPLTLLKLGNQEPGGQTALKSPPGVCSRDPTPEQTHRLARAMMAFTADLFSLVAQTSTCPNLILSPLSVALALSHLALGAQNHTLQRLQQVLHAGSGPCLPHLLSRLCQDLGPGAFRLAARMYLQKGFPIKEDFLEQSEQLFGAKPVSLTGKQEDDLANINQWVKEATEGKIQEFLSGLPEDTVLLLLNAIHFQGFWRNKFDPSLTQRDSFHLDEQFTVPVEMMQARTYPLRWFLLEQPEIQVAHFPFKNNMSFVVLVPTHFEWNVSQVLANLSWDTLHPPLVWERPTKVRLPKLYLKHQMDLVATLSQLGLQELFQAPDLRGISEQSLVVSGVQHQSTLELSEVGVEAAAATSIAMSRMSLSSFSVNRPFLFFIFEDTTGLPLFVGSVRNPNPSAPRELKEQQDSPGNKDFLQSLKGFPRGDKLFGPDLKLVPPMEEDYPQFGSPK |

— patent publication US20100304465A1
